Numbered stars: 1 amine (or outer) side, 2 acyl side, 3 side chain; on linkers, the order of the positions; unused ones are H or OH. Bridge positions count the residues as written; N and C are the ends. Square brackets hold non-standard residues; d marks the D form. Ends that are not written are not given here. NGly(2-(methylamino)ethyl) = CN(CCN(CC(=O)[*:2])[*:1])[*:3]; N(2-Aminoethyl)Gly = O=C(CN(CCN[*:3])[*:1])[*:2]; Nle = CCCC[C@H](N)C(=O)O
B1: combretastatin-carbonyl-N-(2-aminoethyl)-glycine-D-Ser-Nle-D-Tyr-D-Ser-cyclo[Cys-Phe-D-Trp-Lys-Thr-Cys]-Thr-amide (peptide)
peptide: [N(2-Aminoethyl)Gly][dS][Nle][dY][dS]CF[dW]KTCT-NH2
modifications: disulfide 6-11; not fully specified (N-terminus); printed as combretastatin-carbonyl-N-(2-aminoethyl)-glycine-D-Ser-Me-D-Tyr-D-Ser-cyclo[Cys-Phe-D-Trp-Lys-Thr-Cys]-Thr-amide
B2: camptothecin-carbonyl-N-(2-aminoethyl)-glycine-D-Ser-Nle-D-Tyr-D-Ser-cyclo[Cys-Phe-D-Trp-Lys-Thr-Cys]-Thr-amide (peptide)
peptide: [N(2-Aminoethyl)Gly][dS][Nle][dY][dS]CF[dW]KTCT-NH2
modifications: disulfide 6-11; not fully specified (N-terminus); printed as camptothecin-carbonyl-N-(2-aminoethyl)-glycine-D-Ser-Nle-D-Tyr-D-Ser-cyclo[Cys-Phe-D-Trp-Lys-Thr-Cys]-Thr-amide
B3: camptothecin-carbonyl-N-(N-methyl-2-aminoethyl)-glycine-D-Ser-Nle-D-Tyr-D-Ser-cyclo[Cys-Phe-D-Trp-Lys-Thr-Cys]-Thr-amide (peptide)
peptide: [NGly(2-(methylamino)ethyl)][dS][Nle][dY][dS]CF[dW]KTCT-NH2
modifications: disulfide 6-11; not fully specified (N-terminus); printed as camptothecin-carbonyl-N-(N-methyl-2-aminoethyl)-glycine-D-Ser-Nle-D-Tyr-D-Ser-cyclo[Cys-Phe-D-Trp-Lys-Thr-Cys]-Thr-amide

molecular target: human type 2 somatostatin receptor (human, UniProt P30874 1-369, limits assumed); test: cell-based or functional assay
Sequence (P30874 whole entry): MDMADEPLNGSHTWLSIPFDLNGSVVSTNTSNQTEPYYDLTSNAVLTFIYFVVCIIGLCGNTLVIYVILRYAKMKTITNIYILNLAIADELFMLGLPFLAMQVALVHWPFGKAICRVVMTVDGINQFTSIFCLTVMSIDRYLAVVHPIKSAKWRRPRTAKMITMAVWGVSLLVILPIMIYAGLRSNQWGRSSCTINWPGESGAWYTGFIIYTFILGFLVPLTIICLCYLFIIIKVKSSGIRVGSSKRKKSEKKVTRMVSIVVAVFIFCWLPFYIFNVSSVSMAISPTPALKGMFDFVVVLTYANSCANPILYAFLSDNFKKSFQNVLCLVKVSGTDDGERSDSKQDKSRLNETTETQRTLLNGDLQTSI

First: somatostatin-14 (from UniProt P61278 89-116) (peptide)
Second: B1
The Growth Hormone Inhibition IC50, nM (inhibition of GNRH-stimulated GH release from monolayer cultures of rat pituitary cells) of the first is 2-fold higher: 0.63 nM for the first, 0.31 nM for the second.

B2 and B3 are within 1.5-fold of each other in Growth Hormone Inhibition IC50, nM (inhibition of GNRH-stimulated GH release from monolayer cultures of rat pituitary cells): 0.32 nM for the first, 0.27 nM for the second.

Reference: patent US20060009622A1 (ADMINISTRATORS OF THE TULANE EDUCATIONAL FUND, published 2006)
